Data as given in patent publication US6403764.

Experiments:
human IGFBP-1 = target: T1, human IGFBP-1 (human, UniProt P08833 26-259); assay: competitive phage ELISA
T1 construct: mature; Secreted recombinant protein; also called IGFBP-I
T1 sequence (looked up): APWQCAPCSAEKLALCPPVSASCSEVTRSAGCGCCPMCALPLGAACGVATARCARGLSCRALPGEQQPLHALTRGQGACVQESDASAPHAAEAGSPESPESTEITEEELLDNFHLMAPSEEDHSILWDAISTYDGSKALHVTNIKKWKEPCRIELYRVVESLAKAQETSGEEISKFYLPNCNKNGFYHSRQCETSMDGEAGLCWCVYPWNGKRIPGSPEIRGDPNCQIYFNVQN
Procedure: (§1) Phage particles were harvested and resuspended in PBS buffer as described in Lowman, H. B., "Phage Display of Peptide Libraries on Protein Scaffolds," in Cabilly, S. (ed.), *Combinatorial Peptide Library Protocols* (Humana Press Inc.: Totowa, N.J., 1998), pp. 249–264. Then phage concentrations were normalized to yield a maximal ELISA signal of 0.2–0.4 for each mutant (Lowman, in Cabilly, S. (ed.), supra). Threefold serial dilutions of soluble competitor were prepared on non-absorbent microtiter plates (Nunc, F, 96 wells) with binding buffer (0.5% TWEEN™ 20/PBS) containing phage at the previously-determined concentrations. The dilution range of competitor protein extended over six orders of magnitude, starting at 5 µM for IGFBP-1 and 500 nM for IGFBP-3. After blocking, the plates containing immobilized target were washed with 0.05% TWEEN™/PBS buffer and subsequently incubated with 80 µl/well of the premixed phage-competitor solutions for 1 hour at room temperature. […] Numbers in Table I represent mean±standard deviation of individually assessed $IC50$ values.
(§2) At least two different clones of every mutant were tested.

[1] = target: T2, recombinant human IGFBP-3 (human, UniProt P17936 28-291); assay: competitive phage ELISA
T2 construct: mature; Secreted recombinant protein
T2 sequence (P17936 28-291): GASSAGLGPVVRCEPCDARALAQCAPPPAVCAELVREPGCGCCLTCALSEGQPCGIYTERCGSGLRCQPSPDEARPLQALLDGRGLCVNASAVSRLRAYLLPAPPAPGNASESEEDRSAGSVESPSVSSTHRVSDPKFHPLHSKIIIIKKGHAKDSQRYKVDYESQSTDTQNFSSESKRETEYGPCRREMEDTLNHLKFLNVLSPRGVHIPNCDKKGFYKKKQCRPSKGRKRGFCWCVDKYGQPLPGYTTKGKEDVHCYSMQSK
Procedure: as §1, §2

B1: IGF-I D12A displayed on phage (ligand)
chain: SPETLCGAELVAALQFVCGDRGFYFNKPTGYGSSSRRAPQTGIVDECCFRSCDLRRLEMYCAPLKPAKSV
notes: On phage; G1S-A70V template; not shown: M13 gene III fragment (residues 249-406), the display carrier, and its junction
Human IGFBP-1
  IC50: 4.3 nM
[1]
  IC50: 1.49 nM

B2: IGF-I E58A displayed on phage (ligand)
chain: SPETLCGAELVDALQFVCGDRGFYFNKPTGYGSSSRRAPQTGIVDECCFRSCDLRRLAMYCAPLKPAKSV
notes: On phage; G1S-A70V template; not shown: M13 gene III protein fragment (residues 249-406), the phage display carrier, and its junction to IGF-I
Human IGFBP-1
  IC50: 11.9 nM
[1]
  IC50: 1.03 nM

B3: IGF-I G19A displayed on phage (ligand)
chain: SPETLCGAELVDALQFVCADRGFYFNKPTGYGSSSRRAPQTGIVDECCFRSCDLRRLEMYCAPLKPAKSV
notes: as for B1
Human IGFBP-1
  IC50: 11 nM
[1]
  IC50: 0.9 nM

B4: IGF-I P66A displayed on phage (ligand)
chain: SPETLCGAELVDALQFVCGDRGFYFNKPTGYGSSSRRAPQTGIVDECCFRSCDLRRLEMYCAPLKAAKSV
notes: as for B2
Human IGFBP-1
  IC50: 9.4 nM
[1]
  IC50: 0.57 nM

B5: IGF-I S69A displayed on phage (ligand, not shown: large carriers; small tags and cut ends)
chain: SPETLCGAELVDALQFVCGDRGFYFNKPTGYGSSSRRAPQTGIVDECCFRSCDLRRLEMYCAPLKPAKAV
notes: On phage; G1S-A70V template
Human IGFBP-1
  IC50: 12.8 nM
[1]
  IC50: 0.71 nM

B6: IGF-I K27A displayed on phage (ligand)
chain: SPETLCGAELVDALQFVCGDRGFYFNAPTGYGSSSRRAPQTGIVDECCFRSCDLRRLEMYCAPLKPAKSV
notes: On phage; G1S-A70V template; not shown: Display carrier: M13 gene III protein fragment (residues 249-406) and the junction to it
Human IGFBP-1
  IC50: 12.8 nM
[1]
  IC50: 0.66 nM

B7: IGF-I D53A displayed on phage (ligand)
chain: SPETLCGAELVDALQFVCGDRGFYFNKPTGYGSSSRRAPQTGIVDECCFRSCALRRLEMYCAPLKPAKSV
notes: On phage; G1S-A70V template; not shown: Display partner: M13 gene III protein fragment (residues 249-406, mature count) and the junction to it
Human IGFBP-1
  IC50: 15.3 nM
[1]
  IC50: 1.05 nM

B8: IGF-I F23A displayed on phage (ligand)
chain: SPETLCGAELVDALQFVCGDRGAYFNKPTGYGSSSRRAPQTGIVDECCFRSCDLRRLEMYCAPLKPAKSV
notes: as for B6
Human IGFBP-1
  IC50: 10.9 nM
[1]
  IC50: 2.18 nM

B9: IGF-I Y24A displayed on phage (ligand)
chain: SPETLCGAELVDALQFVCGDRGFAFNKPTGYGSSSRRAPQTGIVDECCFRSCDLRRLEMYCAPLKPAKSV
notes: as for B6
Human IGFBP-1
  IC50: 13.3 nM
[1]
  IC50: 2.53 nM

B10: IGF-I E9A displayed on phage (ligand)
chain: SPETLCGAALVDALQFVCGDRGFYFNKPTGYGSSSRRAPQTGIVDECCFRSCDLRRLEMYCAPLKPAKSV
notes: as for B1
Human IGFBP-1
  IC50: 8.6 nM
[1]
  IC50: 1.32 nM

B11: IGF-I Y60A displayed on phage (ligand)
chain: SPETLCGAELVDALQFVCGDRGFYFNKPTGYGSSSRRAPQTGIVDECCFRSCDLRRLEMACAPLKPAKSV
notes: as for B2
Human IGFBP-1
  IC50: 6.6 nM
[1]
  IC50: 0.52 nM

B12: IGF-I L5A displayed on phage (ligand, not shown: large carriers; small tags and cut ends)
chain: SPETACGAELVDALQFVCGDRGFYFNKPTGYGSSSRRAPQTGIVDECCFRSCDLRRLEMYCAPLKPAKSV
notes: On phage; G1S-A70V template
Human IGFBP-1
  IC50: 55.3 nM
[1]
  IC50: 1.53 nM

B13: IGF-I L10A displayed on phage (ligand)
chain: SPETLCGAEAVDALQFVCGDRGFYFNKPTGYGSSSRRAPQTGIVDECCFRSCDLRRLEMYCAPLKPAKSV
notes: as for B1
Human IGFBP-1
  IC50: 311 nM
[1]
  IC50: 3.55 nM

B14: IGF-I M59A displayed on phage (ligand)
chain: SPETLCGAELVDALQFVCGDRGFYFNKPTGYGSSSRRAPQTGIVDECCFRSCDLRRLEAYCAPLKPAKSV
notes: as for B2
Human IGFBP-1
  IC50: 13.1 nM
[1]
  IC50: 0.74 nM

B15: IGF-I G22A displayed on phage (ligand)
chain: SPETLCGAELVDALQFVCGDRAFYFNKPTGYGSSSRRAPQTGIVDECCFRSCDLRRLEMYCAPLKPAKSV
notes: as for B6
Human IGFBP-1
  IC50: 15.9 nM
[1]
  IC50: 2.07 nM

B16: IGF-I S35A displayed on phage (ligand, not shown: large carriers)
chain: SPETLCGAELVDALQFVCGDRGFYFNKPTGYGSSARRAPQTGIVDECCFRSCDLRRLEMYCAPLKPAKSV
notes: On phage; G1S-A70V template
Human IGFBP-1
  IC50: 11.7 nM
[1]
  IC50: 0.47 nM

B17: IGF-I R56A displayed on phage (ligand)
chain: SPETLCGAELVDALQFVCGDRGFYFNKPTGYGSSSRRAPQTGIVDECCFRSCDLRALEMYCAPLKPAKSV
notes: as for B7
Human IGFBP-1
  IC50: 13.1 nM
[1]
  IC50: 1 nM

B18: IGF-I L64A displayed on phage (ligand)
chain: SPETLCGAELVDALQFVCGDRGFYFNKPTGYGSSSRRAPQTGIVDECCFRSCDLRRLEMYCAPAKPAKSV
notes: as for B2
Human IGFBP-1
  IC50: 12.1 nM
[1]
  IC50: 0.93 nM

B19: IGF-I L57A displayed on phage (ligand)
chain: SPETLCGAELVDALQFVCGDRGFYFNKPTGYGSSSRRAPQTGIVDECCFRSCDLRRAEMYCAPLKPAKSV
notes: as for B2
Human IGFBP-1
  IC50: 21.8 nM
[1]
  IC50: 1.78 nM

B20: IGF-I R21A displayed on phage (ligand)
chain: SPETLCGAELVDALQFVCGDAGFYFNKPTGYGSSSRRAPQTGIVDECCFRSCDLRRLEMYCAPLKPAKSV
notes: as for B6
Human IGFBP-1
  IC50: 7.1 nM
[1]
  IC50: 0.58 nM

B21: IGF-I T4A displayed on phage (ligand, not shown: large carriers; small tags and cut ends)
chain: SPEALCGAELVDALQFVCGDRGFYFNKPTGYGSSSRRAPQTGIVDECCFRSCDLRRLEMYCAPLKPAKSV
notes: On phage; G1S-A70V template
Human IGFBP-1
  IC50: 19.4 nM
[1]
  IC50: 0.8 nM

B22: IGF-I N26A displayed on phage (ligand)
chain: SPETLCGAELVDALQFVCGDRGFYFAKPTGYGSSSRRAPQTGIVDECCFRSCDLRRLEMYCAPLKPAKSV
notes: as for B6
Human IGFBP-1
  IC50: 9.1 nM
[1]
  IC50: 0.9 nM

B23: IGF-I L54A displayed on phage (ligand)
chain: SPETLCGAELVDALQFVCGDRGFYFNKPTGYGSSSRRAPQTGIVDECCFRSCDARRLEMYCAPLKPAKSV
notes: as for B7
Human IGFBP-1
  IC50: 23.1 nM
[1]
  IC50: 1.83 nM

B24: IGF-I L14A displayed on phage (ligand)
chain: SPETLCGAELVDAAQFVCGDRGFYFNKPTGYGSSSRRAPQTGIVDECCFRSCDLRRLEMYCAPLKPAKSV
notes: as for B1
Human IGFBP-1
  IC50: 36.7 nM
[1]
  IC50: 0.9 nM

B25: IGF-I F25A displayed on phage (ligand)
chain: SPETLCGAELVDALQFVCGDRGFYANKPTGYGSSSRRAPQTGIVDECCFRSCDLRRLEMYCAPLKPAKSV
notes: as for B6
Human IGFBP-1
  IC50: 181 nM
[1]
  IC50: 3.69 nM

B26: IGF-I Q15A displayed on phage (ligand)
chain: SPETLCGAELVDALAFVCGDRGFYFNKPTGYGSSSRRAPQTGIVDECCFRSCDLRRLEMYCAPLKPAKSV
notes: as for B1
Human IGFBP-1
  IC50: 13.9 nM
[1]
  IC50: 1.26 nM

B27: IGF-I D20A displayed on phage (ligand)
chain: SPETLCGAELVDALQFVCGARGFYFNKPTGYGSSSRRAPQTGIVDECCFRSCDLRRLEMYCAPLKPAKSV
notes: as for B6
Human IGFBP-1
  IC50: 8.4 nM
[1]
  IC50: 1.11 nM

B28: IGF-I E3A displayed on phage (ligand, not shown: large carriers; small tags and cut ends)
chain: SPATLCGAELVDALQFVCGDRGFYFNKPTGYGSSSRRAPQTGIVDECCFRSCDLRRLEMYCAPLKPAKSV
notes: On phage; G1S-A70V template
Human IGFBP-1
  IC50: 278 nM
[1]
  IC50: 1.05 nM

B29: IGF-I V17A displayed on phage (ligand)
chain: SPETLCGAELVDALQFACGDRGFYFNKPTGYGSSSRRAPQTGIVDECCFRSCDLRRLEMYCAPLKPAKSV
notes: as for B1
Human IGFBP-1
  IC50: 42.9 nM
[1]
  IC50: 3.67 nM

B30: IGF-I K68A displayed on phage (ligand, not shown: large carriers; small tags and cut ends)
chain: SPETLCGAELVDALQFVCGDRGFYFNKPTGYGSSSRRAPQTGIVDECCFRSCDLRRLEMYCAPLKPAASV
notes: On phage; G1S-A70V template
Human IGFBP-1
  IC50: 10.5 nM
[1]
  IC50: 0.76 nM

B31: IGF-I R37A displayed on phage (ligand, not shown: large carriers)
chain: SPETLCGAELVDALQFVCGDRGFYFNKPTGYGSSSRAAPQTGIVDECCFRSCDLRRLEMYCAPLKPAKSV
notes: On phage; G1S-A70V template
Human IGFBP-1
  IC50: 12.3 nM
[1]
  IC50: 0.75 nM

B32: IGF-I Q40A displayed on phage (ligand, not shown: large carriers)
chain: SPETLCGAELVDALQFVCGDRGFYFNKPTGYGSSSRRAPATGIVDECCFRSCDLRRLEMYCAPLKPAKSV
notes: On phage; G1S-A70V template
Human IGFBP-1
  IC50: 10.2 nM
[1]
  IC50: 0.56 nM

B33: IGF-I K65A displayed on phage (ligand)
chain: SPETLCGAELVDALQFVCGDRGFYFNKPTGYGSSSRRAPQTGIVDECCFRSCDLRRLEMYCAPLAPAKSV
notes: as for B2
Human IGFBP-1
  IC50: 12.4 nM
[1]
  IC50: 0.69 nM

B34: IGF-I S51A displayed on phage (ligand)
chain: SPETLCGAELVDALQFVCGDRGFYFNKPTGYGSSSRRAPQTGIVDECCFRACDLRRLEMYCAPLKPAKSV
notes: as for B7
Human IGFBP-1
  IC50: 13.4 nM
[1]
  IC50: 0.65 nM

B35: IGF-I F16A displayed on phage (ligand)
chain: SPETLCGAELVDALQAVCGDRGFYFNKPTGYGSSSRRAPQTGIVDECCFRSCDLRRLEMYCAPLKPAKSV
notes: as for B1
Human IGFBP-1
  IC50: 57.8 nM
[1]
  IC50: 1.32 nM

B36: IGF-I R55A displayed on phage (ligand)
chain: SPETLCGAELVDALQFVCGDRGFYFNKPTGYGSSSRRAPQTGIVDECCFRSCDLARLEMYCAPLKPAKSV
notes: as for B7
Human IGFBP-1
  IC50: 9 nM
[1]
  IC50: 0.66 nM
